Laboratory results published in PMC7409020, “Tumor-Targeting Peptides: The Functional Screen of Glioblastoma Homing Peptides to the Target Protein FABP3 (MDGI)” (Cancers, 2020).
Square brackets hold non-standard residues; d marks the D form. Ends that are not written are not given here.

Target: recombinant N-terminal His6-tagged human FABP3 (human)
Assay: MST; Monolith NT.115; 20 nM NT-650-NHS-labelled FABP3, unlabelled peptides 500 µM to 0.0153 µM in two-fold dilutions; 25 °C; PBS with 0.05% Tween 20, pH 7.4; 40% MST power, 60% LED power; 1:1 fit; triplicates

Chain of recombinant N-terminal His6-tagged human FABP3 (human) (P05413 2-133): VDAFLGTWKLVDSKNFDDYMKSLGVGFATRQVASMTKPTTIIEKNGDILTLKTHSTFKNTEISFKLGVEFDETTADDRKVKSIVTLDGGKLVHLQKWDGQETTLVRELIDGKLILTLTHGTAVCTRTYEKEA

Binder	fold lower binding affinity compared to A-CooP	Kd
[dA][dV]G[dL]G[dS][dL]G[dC][dA]-NH2 (N-terminus assumed; SMILES CC(C)C[C@@H](NC(=O)CNC(=O)[C@H](NC(=O)[C@@H](C)N)C(C)C)C(=O)NCC(=O)N[C@H](CO)C(=O)N[C@H](CC(C)C)C(=O)NCC(=O)N[C@H](CS)C(=O)N[C@H](C)C(N)=O) [RI-A-CooP]	10 fold	
ACGLSGLGVA-NH2 [A-CooP]		2180 nM
ACGLSGLAVA-NH2 [A-[Ala^7]CooP]		133000 nM
ACGLSGLGVAK-NH2 [A-CooP-K]		70 nM
KACGLSGLGVA-NH2 [KA-CooP]		630 nM
